Molecular target: mare1_mouse Mapre1 (UniProt Q61166)
Sequence (Q61166 whole entry): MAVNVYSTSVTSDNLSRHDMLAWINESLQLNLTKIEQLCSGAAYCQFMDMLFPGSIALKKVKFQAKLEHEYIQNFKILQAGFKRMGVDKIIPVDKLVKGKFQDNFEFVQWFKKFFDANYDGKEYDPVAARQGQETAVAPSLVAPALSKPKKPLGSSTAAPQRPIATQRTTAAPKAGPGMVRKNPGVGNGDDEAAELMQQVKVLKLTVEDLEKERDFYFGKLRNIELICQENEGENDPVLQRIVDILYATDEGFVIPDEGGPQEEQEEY

Row | effect of a mutation on the interaction | Substance
1 | disrupting interaction | Dystonin (Homo sapiens), Q03001 D7246A
2 | disrupting interaction | Dystonin (Homo sapiens), Q03001 D7248A
3 | disrupting interaction | Dystonin (Homo sapiens), Q03001 D7250A

From IntAct's records for PubMed 22995871
